{"source": "patent US20050153372A1", "biological_target": "calmodulin (in the CaMKI and calcineurin activity assays)", "assay": "cell-based or functional assay"}
{"substance": "phosphorylated DARPP-21", "values": [{"measurement": "inhibition of CaMKI kinase activity in vitro, IC50", "value": 1.2, "unit": "µM"}, {"measurement": "inhibition of calcineurin phosphatase activity in vitro, IC50", "value": 1, "unit": "µM"}]}
